We go through 1 molecule from patent publication US20030199671A1 (published 2003).

Positions of bridges follow the written chain, without caps; N, C: chain ends. Where only a bound is given, the exact number is not on record here.

Experiment [1] has as its target T1, human IgG1 (human, UniProt P01857-1 1-330 = IgG part).
T1 construct: Calbiochem; human plasma IgG1 in anisotropy studies, myeloma-derived (cat. 400120) in batch/column studies; also called hIgG1
The experiment in a line: batch binding, immobilised ligand. As to the method:
(§1) IgG targets were diluted into 10 mM phosphate buffer containing 150 mM NaCl and 0.01% Tween 20, pH 7.2 (PBST) or 50 mM Tris buffer containing, 150 mM NaCl and 0.01% Tween-20, pH 7.5 (TBST). Batch (static) binding and elution studies were conducted in a 96-well assay filterplate (Millipore MultiScreen-HV, with 0.45 μm Durapore membrane, product no. MAHVN4510). The target was allowed to incubate with the resin for 1-1.5 hours with shaking at room temperature. Unbound target was collected by centrifugation of samples from the assay plate directly into a low-UV absorbing 96-well collection plate (Costar, product no. 3635 or Greiner, product no. 655801). The unbound target was then quantitated by reading the absorbance at 280 nm (normalized to 1 cm pathlength, 1.4 mg/ml A280 extinction coefficient) of the collection plate on a microplate spectrophotometer (Molecular Devices Corp., SPECTRAmax PLUS) against a buffer blank.
(§2) The percentage bound target was determined by subtracting the mass determined as unbound from the corresponding condition's control values (control non-filtered added directly to the collection plate and/or the negative control). The assay plate was washed (3×) with 200 μl of binding buffer by vacuum filtration followed by addition of 100 μl of various elution conditions (e.g.: 0.1 M sodium bicarbonate buffer, pH 8.5 and/or 0.1 M sodium citrate buffer, pH 4.0). After a 30-60 minute incubation with shaking at room temperature, the eluted target was collected by centrifugation of the assay plate into another collection plate and quantitated in a similar manner. Percent elution of total load was then determined to characterize elution recovery efficiency under various conditions.

The target of experiment [2] is T2, human IgG2 (human, UniProt P01859-1 1-326 = IgG part).
T2 construct: Calbiochem; plasma IgG2 in anisotropy studies, myeloma-derived (cat. 400122) in batch/column studies; also called hIgG2
The experiment in a line: batch binding, immobilised ligand. On the procedure: as §1, §2

The target in the next experiment is T3, human IgG3 (human, UniProt P01860-1 1-377).
T3 construct: Calbiochem; plasma IgG3 in anisotropy studies, myeloma-derived (cat. 400124) in batch/column studies; also called hIgG3
The experiment is described as follows: batch binding, immobilised ligand. On the procedure: as §1, §2

Experiment [3] concerns the target T4, human IgG4 (human, UniProt P01861-1 1-327 = IgG part).
T4 construct: Calbiochem; plasma IgG4 in anisotropy studies, myeloma-derived (cat. 400126) in batch/column studies; also called hIgG4
The experiment is described as follows: batch binding, immobilised ligand. As to the method: as §1, §2

For experiment [4], the target named is T1, human IgG1. The experiment is described as follows: fluorescence anisotropy; pH 7.4 PBS. As to the method: (§3) All measurements were performed in 384 well microplates with 20 nM fluorescein-labeled peptide and various concentrations of the IgG isoform in a volume of between 10 and 20 μl using a Tecan Polarion fluorescence polarization plate reader. All binding buffers included 0.01% (v/v) Tween 20 to prevent peptide adsorption to the microplate. The binding mixture was equilibrated for 10 minutes in the microplate at 30° C. prior to performing the measurement.
A general note: Polarisation of emitted light reports the rotation of a fluorescent probe.

Experiment [5] addresses T2, human IgG2. The experiment is described as follows: fluorescence anisotropy; pH 7.4 PBS. On the procedure:
as §3

Experiment [6] deals with T4, human IgG4. The experiment in a line: fluorescence anisotropy; pH 7.4 PBS. As to the method:
as §3

Experiment [7] deals with T1, human IgG1. The experiment in a line: mini-column chromatography, immobilised ligand. On the procedure: (§4) Thus, 250 μg of target (hIgG1, hIgG2, hIgG3, hIgG4, goat IgG and bovine IgG) at 0.250 mg/ml in PBST, pH 7.2 or TBST, pH 7.3 was loaded onto a 350 μl column (3×50 mm) run at 0.200 ml/min. flowrate (170 cm/hr). Flowthrough, elution and cleaning fractions were collected and assayed for total protein recovery by size-exclusion HPLC.

For experiment [8], the target named is T2, human IgG2. The experiment in a line: mini-column chromatography, immobilised ligand. On the procedure: as §4
Experiment [9] has as its target T4, human IgG4. The experiment in a line: mini-column chromatography, immobilised ligand. As to the method: as §4
In experiment [10] the target is T1, human IgG1. The experiment is described as follows: fluorescence anisotropy; pH 5.7, 0.1 M NaCl. As to the method: as §3
Experiment [11] deals with T1, human IgG1. The experiment in a line: fluorescence anisotropy; pH 5.7, 0.05 M NaCl. On the procedure: as §3
Experiment [12] addresses T1, human IgG1. The experiment in a line: fluorescence anisotropy; pH 5.7, 0.15 M NaCl. As to the method: as §3
In experiment [13] the target is T5, human IgG (unfractionated, polyclonal).
T5 construct: also called hIgG; polyclonal human IgG
The experiment is described as follows: filterplate; 25 mg human IgG applied per ml resin. On the procedure: After incubation of the samples, with shaking, at room temperature for one hour, the supernatant liquid from each well, containing unbound IgG, was collected by centrifugation into the cognate well of a collection plate. The assay plate was washed three times with PBST (200 μl/wash) and bound IgG was eluted from the media samples by incubation for 30-60 minutes at room temperature in 100 μl Elution Buffer (100 mM CAPS, pH 11.5). Eluates were collected by centrifugation for analysis. Protein concentrations were determined from A₂₈₀ measurements and plotted as a function of mg human IgG bound per ml resin vs. mg human IgG applied per ml resin.
These were subsequently tested in batch filterplate format for relative static capacity, human IgG subtype and species specificity as previously described. In addition, total dynamic capacities were determined for comparison. […] The static capacity (mg IgG bound per ml resin) was measured at the 2.5 mg/ml target concentration (25 mg human IgG applied per ml resin).

The target in experiment [14] is T6, Human IgG Fc fragment isolated from plasma (human).
T6 construct: domain: Fc fragment; also called human Fc; Fc protein
The experiment in a line: fluorescence anisotropy; pH 8.0, 0.05 M Tris-HCl, 0.2 M NaCl. On the procedure:
as §3

Experiment [15] addresses T1, human IgG1. The experiment in a line: fluorescence anisotropy; pH 7.4 PBS (second value, unlabelled row). As to the method:
as §3

T2 sequence (P01859 other isoform, or with tags, fused parts or gaps): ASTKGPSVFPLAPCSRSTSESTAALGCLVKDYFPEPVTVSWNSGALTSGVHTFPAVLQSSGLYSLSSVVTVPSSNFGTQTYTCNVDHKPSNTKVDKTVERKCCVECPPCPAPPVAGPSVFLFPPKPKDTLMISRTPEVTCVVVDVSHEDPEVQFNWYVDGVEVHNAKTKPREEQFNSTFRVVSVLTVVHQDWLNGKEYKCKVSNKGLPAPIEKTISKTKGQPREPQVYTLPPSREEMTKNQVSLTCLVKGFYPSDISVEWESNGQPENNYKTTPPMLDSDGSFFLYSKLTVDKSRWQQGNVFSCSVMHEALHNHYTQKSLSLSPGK
T4 sequence (P01861 other isoform, or with tags, fused parts or gaps): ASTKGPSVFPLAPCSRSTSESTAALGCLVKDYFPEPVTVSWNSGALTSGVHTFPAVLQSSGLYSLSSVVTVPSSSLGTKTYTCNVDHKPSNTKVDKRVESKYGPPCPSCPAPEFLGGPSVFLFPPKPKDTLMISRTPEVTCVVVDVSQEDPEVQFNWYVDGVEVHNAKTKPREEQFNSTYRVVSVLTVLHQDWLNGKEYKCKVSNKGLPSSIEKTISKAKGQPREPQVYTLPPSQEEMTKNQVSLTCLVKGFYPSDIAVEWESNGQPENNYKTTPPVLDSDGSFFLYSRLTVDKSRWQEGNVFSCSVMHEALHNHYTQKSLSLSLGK
T1 sequence (P01857 other isoform, or with tags, fused parts or gaps): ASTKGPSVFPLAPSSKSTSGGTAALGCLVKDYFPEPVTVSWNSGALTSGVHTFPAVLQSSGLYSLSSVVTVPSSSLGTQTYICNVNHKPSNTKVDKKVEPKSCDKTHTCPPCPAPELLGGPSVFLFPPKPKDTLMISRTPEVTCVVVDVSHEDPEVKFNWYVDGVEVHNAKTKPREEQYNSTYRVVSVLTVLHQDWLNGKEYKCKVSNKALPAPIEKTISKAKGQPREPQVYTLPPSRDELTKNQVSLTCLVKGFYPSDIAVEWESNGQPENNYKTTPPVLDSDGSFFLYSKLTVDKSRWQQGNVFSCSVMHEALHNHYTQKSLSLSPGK
T3 sequence (P01860 other isoform, or with tags, fused parts or gaps): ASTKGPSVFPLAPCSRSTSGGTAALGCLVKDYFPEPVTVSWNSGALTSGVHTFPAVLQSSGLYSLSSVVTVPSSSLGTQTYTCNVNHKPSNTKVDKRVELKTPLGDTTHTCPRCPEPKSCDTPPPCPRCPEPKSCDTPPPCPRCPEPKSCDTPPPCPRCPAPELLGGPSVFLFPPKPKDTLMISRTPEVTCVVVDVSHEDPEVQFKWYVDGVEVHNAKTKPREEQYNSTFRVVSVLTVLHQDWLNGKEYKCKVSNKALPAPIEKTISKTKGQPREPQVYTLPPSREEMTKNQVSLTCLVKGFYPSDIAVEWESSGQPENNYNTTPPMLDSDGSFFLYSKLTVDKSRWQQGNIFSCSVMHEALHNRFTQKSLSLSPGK

For orientation: Kd means the equilibrium constant for the complex coming apart. A higher Kd goes with lower affinity. Ac-GDDHMCVYTTWGELIWCDNHEPGPEGGGK-NH2 (disulfide 6-17 (inferred), Synthetic disulfide-cyclised peptide) [DX249]: the “Bound (% of Total Load)” value with human IgG1 [1] came out at 88%; in the experiment with human IgG2 [2], 78%; with human IgG3 it was 0%; with human IgG4 [3], 61%. The “bdg % (of Total Load)” value with human IgG1 [1] stood at 91%; in the experiment with human IgG2 [2] it was 92%; with human IgG3, 3%; with human IgG4 [3], 82%. Further, the Kd with human IgG1 [4] worked out at 1400 nM; in the experiment with human IgG2 [5], 1100 nM; with human IgG4 [6], 1900 nM; with human IgG1 [10], 970 nM; in the experiment with human IgG1 [11], 300 nM; in the experiment with human IgG1 [12], 840 nM. In addition, the Kd came out at 2500 nM in experiment [14] and 2900 nM with human IgG1 [15]. Besides, the binding efficiency with human IgG1 [7], with human IgG2 [8] and in the experiment with human IgG4 [9] was greater than 90% throughout. The “Static Cap.” value in [13] turned out to be 24 mg/mL.
